Measured values from the RNAGym collection of RNA variant scans (doi:10.1093/nar/gkz1192).

B1: CPEB3 Ribozyme (parent)
chain: UAACAGGGGGCCACAGCAGAAGCGUUCACGUCGCAGCCCCUGUCAGAUUCUGGUGAAUCUGCGAAUUCUGCUGUAUAUCUC

Variants of: B1
Assay: self-cleavage, relative activity (ratio to wild type); higher = more cleavage; in vitro, sequencing
Procedure, shortened: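 Relative activity was defined as the cleaved/total read fraction for a variant divided by the same fraction for the unmutated ribozyme. CPEB3 self-cleaving ribozyme libraries were made by rounds of error-prone PCR, barcoded, and transcribed in vitro with T7 RNA polymerase for 5 hours at 37°C, and cleavage ran through transcription plus a 15 min DNase I step before EDTA. Illumina sequencing of template-switched reverse transcripts gave the reads, and DNA sequencing mapped the barcodes. Averages come from three batches, using variants with at least 5 reads.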

Variant	self-cleavage
G6C U67C	0.3
A5U U76C	1.13
A5U U76A	1.12
A5U U41C	0.98
A5U U41A	0.33
A5U C59G	0.37
A5U C59A	0.43
G6A U25C	0.27
G6A U25G	0.47
G6A A18C	0.44
G6A A18G	0.31
G6A A18U	0.23
A5U G52A	1.1
A5U G52U	1.15
G6A A35G	0.86
G6A A35C	0.3
G6A A35U	0.26
A5U C50A	1.01
G6U A75G	0.09
G6A C34U	0.15
A5U G6A	0.52

Variant	self-cleavage
G6A G19C	0.42
G6A G19U	0.06
G6A G19A	0.26
A5U U49C	0.55
A5U U49A	0.44
G6C U74C	0.67
G6A U49C	0.15
G6A U49A	0.08
G6U A28G	0.38
A5U A35C	1.2
A5U A35G	1.19
A5U A35U	0.63
A5G U78G	0.91
A5G U78C	0.63
A5G U78A	0.88
G6C A35U	0.3
G6C U78C	0.48
G6A A13U	0.28
G6A A13C	0.4
G6A A13G	0.35
G6C U51A	0.38

Variant	self-cleavage
G6A A20U	0.07
G6A A20G	0.48
G6C U69C	0.21
A5U U48C	0.66
G6A G63A	0.34
G6U A56U	0.22
G6U A56G	0.41
G6C C38A	0.43
A5U U72C	1.14
A5U U72A	0.71
A5U U72G	0.94
A5U C12U	1.14
A5G U76C	0.76
A5G U76G	0.6
G6U A47G	0.36
G6U A47U	0.17
G6A C40U	0.33
A5U U51C	1.13
A5U U51A	0.96
A5U U51G	1.16
G6A G9C	0.07

Variant	self-cleavage
G6A G9A	0.25
A5U A75G	0.95
G6C U54C	0.52
G6U A13U	0.18
A5U U67G	0.54
A5U U67C	0.29
A5U U67A	0.63
G6A A77C	0.44
G6A A77U	0.34
G6A A77G	0.45
A5U G61U	0.72
G6A C81U	0.73
G6A C23A	0.1
G6A C23G	0.35
G6A C23U	0.12
G6U A35U	0.36
G6U A35G	0.41
A5U G36A	0.39
A5U G16A	1.05
A5U G16U	0.66
G6C U72A	0.18
